Measurements taken from patent US7211420B1, “Process for oxidizing terpenes” (ISIS Innovation Limited, priority 1998, dated 2007).

What was measured:
Type in all cases: biochemical
[1] = Oxidation of L-limonene by P450cam mutants, product proportions by GC; conditions: substrate L-Limonene
Procedure: (§1) For simple screening the substrate can be added to culture and the incubation continued. However, due to impurities from the culture media the cells were generally washed twice with 0.5 vol. of buffer P, (KH2PO4 6.4 g, K2HPO4.3H2O 25.8 g, H2O to 4 liters, pH 7.4) and resuspended in 0.25 vol. oxygen saturated buffer P containing 24 mM glucose. Substrate was added to 1 mM and the incubation continued at 30° C. The reaction was allowed to run for 24 hours with periodic additions of substrate and glucose.
(§2) The reaction was analysed by extracting 1 ml of the incubation mixture with 250 μl of ethylacetate. After centrifuging in a microcentrifuge at 13,000 g for 2 minutes, 2 μl of the organic extract was injected onto a 0.25 mm×30 m DB-1 gas chromatography column in a Fisons GC 8000 series gas chromatograph. The samples were carried through the column using helium carrier gas and the compounds present were detected using a flame ionisation detector.

[2] = Oxidation of valencene by P450cam mutants, product proportions by GC; conditions: substrate Valencene
Procedure: as §1, §2

[3] = Oxidation of α-pinene by P450cam mutants, product proportions by GC; conditions: substrate α-Pinene
Procedure: as §1, §2

[4] = single oxygen insertion products only, 30 m DB-1 GC column

B1: Wild-type: Wild-type P450cam haem monooxygenase from Pseudomonas putida, sequence in Table 7 (protein, UniProt P00183 2-415, looked up)
Camphor 5-monooxygenase: TTETIQSNANLAPLPPHVPEHLVFDFDMYNPSNLSAGVQEAWAVLQESNVPDLVWTRCNGGHWIATRGQLIREAYEDYRHFSSECPFIPREAGEAYDFIPTSMDPPEQRQFRALANQVVGMPVVDKLENRIQELACSLIESLRPQGQCNFTEDYAEPFPIRIFMLLAGLPEEDIPHLKYLTDQMTRPDGSMTFAEAKEALYDYLIPIIEQRRQKPGTDAISIVANGQVNGRPITSDEAKRMCGLLLVGGLDTVVNFLSFSMEFLAKSPEHRQELIERPERIPAACEELLRRFSLVADGRILTSDYEFHGVQLKKGDQILLPQMLSGLDERENACPMHVDFSRQKVSHTTFGHGSHLCLGQHLARREIIVTLKEWLTRIPDFSIAPGAQIQHKSGIVSGVQALPLVWDPATTKAV
[1]
  Comments: Very small quantities
[1]; [4]
  Approximate proportion of Product at 6.10–6.20 min: 30%
  Approximate proportion of product Isopiperitenol (6.60–6.70 min): 70%
[2]
  Comments: Many small peaks
[3]
  Approximate proportion of product Pinene oxide: 10%
  Approximate proportion of product Verbenol: 30%
  Approximate proportion of product Verbenone: 10%
  Remaining other products (Comments): Remaining 50% other products
